US20130295021A1 (published 2013)
Blank lines part the entries; values can stand above or below the binder they belong to. Non-standard residues stand in square brackets, D forms with d. No end group written: not given here. pT = C[C@@H](OP(=O)(O)O)[C@H](N)C(=O)O

How the values were obtained:
[1] = biological target: T1, His-tagged tau domain II (AA 136-258 of hTau40) (human, UniProt P10636 387-575); test: Western blot
T1 construct: Expressed in E. coli BL21 (DE3) and purified on Ni-NTA
Method: (§1) DNA fragments, synthesized using GeneArt® (Invitrogen), which encode each Tau domain with 6×His tagged at the N-terminus were cloned into the pRSET-A expression vector (Invitrogen), were transfected into E. Coli BL21 (DE3) (New England Biolabs). The expressions of the His-tagged Tau domains were induced by 0.5 mM IPTG for six hours before bacteria were lysed with lysozyme with sonication. The lysate was boiled for five minutes before being further purified with Ni-NTA Superflow Columns (Qiagen). The eluted His-tagged Tau domains were coated on ELISA plates or loaded on polyacrylamide gel for Western Blot. These sequentially overlapping tau domain polypeptides cover the full length of hTau40 (FIG. 13A).

[2] = biological target: T2, His-tagged tau domain III (AA 235-373 of hTau40) (human, UniProt P10636 552-690); test: Western blot
T2 construct: Expressed in E. coli BL21 (DE3) and purified on Ni-NTA
T2 sequence (P10636 other isoform, or with tags, fused parts or gaps): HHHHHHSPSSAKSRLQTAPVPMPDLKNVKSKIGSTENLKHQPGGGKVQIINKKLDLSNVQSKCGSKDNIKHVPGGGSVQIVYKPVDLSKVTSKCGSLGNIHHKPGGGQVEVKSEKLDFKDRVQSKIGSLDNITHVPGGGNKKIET
Method: as §1

[3] = biological target: T3, His-tagged tau domain IV (AA 355-441 of hTau40) (human, UniProt P10636 672-758); test: Western blot
T3 construct: Expressed in E. coli BL21 (DE3) and purified on Ni-NTA
T3 sequence (P10636 other isoform, or with tags, fused parts or gaps): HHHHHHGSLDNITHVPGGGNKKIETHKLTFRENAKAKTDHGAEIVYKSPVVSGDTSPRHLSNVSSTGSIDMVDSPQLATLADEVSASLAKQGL
Method: as §1

[4] = biological target: T4, bovine serum albumin (BSA) (UniProt P02769 25-607); test: direct ELISA, plates coated with BSA
T4 construct: Control antigen
T4 sequence (P02769 25-607 limits assumed): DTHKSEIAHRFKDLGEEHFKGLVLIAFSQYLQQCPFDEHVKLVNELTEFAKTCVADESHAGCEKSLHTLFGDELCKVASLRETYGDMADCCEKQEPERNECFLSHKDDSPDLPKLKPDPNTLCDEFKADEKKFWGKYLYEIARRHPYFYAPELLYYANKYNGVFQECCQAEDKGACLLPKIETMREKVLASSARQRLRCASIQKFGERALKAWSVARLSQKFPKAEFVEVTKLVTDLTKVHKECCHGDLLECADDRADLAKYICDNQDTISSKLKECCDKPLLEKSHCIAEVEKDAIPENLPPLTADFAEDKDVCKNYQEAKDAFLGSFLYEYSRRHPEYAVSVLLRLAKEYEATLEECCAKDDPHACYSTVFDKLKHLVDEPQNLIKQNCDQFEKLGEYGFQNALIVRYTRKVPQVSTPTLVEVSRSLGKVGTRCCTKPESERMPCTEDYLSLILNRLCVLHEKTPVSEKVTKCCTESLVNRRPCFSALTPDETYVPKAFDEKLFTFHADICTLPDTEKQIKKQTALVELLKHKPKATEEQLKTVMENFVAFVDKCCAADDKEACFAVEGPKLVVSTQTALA
Method: To validate tau as a recognized target of isolated antibodies direct ELISA assays were performed as described above. […] No binding is observed to BSA (FIG. 10).

[5] = biological target: T5, PHFTau, paired helical filaments containing pathologically phosphorylated tau filaments extracted from AD … (human, UniProt P10636-8 1-441, limits assumed, pathologically phosphorylated; sites not given); test: direct ELISA, PHFTau coated at 1:100; PHFTau coated at 1:100
T5 construct: Brain extract, aggregated and phosphorylated; also called pathologically modified tau isoforms
T5 sequence (P10636 other isoform, or with tags, fused parts or gaps limits assumed): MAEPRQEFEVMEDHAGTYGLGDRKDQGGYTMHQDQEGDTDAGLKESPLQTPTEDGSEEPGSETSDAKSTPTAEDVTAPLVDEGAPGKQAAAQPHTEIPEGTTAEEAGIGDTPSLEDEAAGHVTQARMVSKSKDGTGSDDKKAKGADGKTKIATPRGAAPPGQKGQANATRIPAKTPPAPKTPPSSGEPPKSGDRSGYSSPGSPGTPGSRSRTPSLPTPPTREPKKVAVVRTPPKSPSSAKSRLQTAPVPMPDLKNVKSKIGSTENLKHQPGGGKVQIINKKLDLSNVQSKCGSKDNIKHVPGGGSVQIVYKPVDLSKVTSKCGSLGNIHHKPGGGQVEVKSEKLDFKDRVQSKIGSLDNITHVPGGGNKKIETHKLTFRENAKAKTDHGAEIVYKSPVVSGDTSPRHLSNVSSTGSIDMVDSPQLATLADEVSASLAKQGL
Method: (§2) ELISA plates were coated with recombinant human tau (hTau40, 1 ug/ml), PHFTau (1:100) and control preparation (1:100), and incubated with varying antibody concentrations.

[6] = biological target: T6, recombinant human tau, isoform Tau-F of 441aa (hTau40) (human, UniProt P10636 1-758); test: direct ELISA, hTau40 coated at 1 ug/ml; hTau40 coated at 1 ug/ml
T6 construct: Bought from rPeptide (Bogart, USA); also called full-length tau; rTau
T6 sequence (P10636 other isoform, or with tags, fused parts or gaps limits assumed): as above
Method: (§3) 96 well microplates (Costar, Corning, USA) were coated with recombinant Tau protein (hTau40, rPeptide, Bogart, USA) diluted to a concentration of 1 μg/ml in carbonate ELISA coating buffer (50 mM, pH9.6) at 4° C. over night. Non-specific binding sites were blocked for 2 hr at RT with PBS containing 2% BSA (Sigma, Buchs, Switzerland) and 0.5% Tween20. […] EC₅₀ values were estimated by a non-linear regression using GraphPad Prism software (San Diego, USA).
as §2

[7] = biological target: T6, recombinant human tau, isoform Tau-F of …; test: direct ELISA, hTau40 coated at 3 µg/ml
Excerpt: (§4) The EC₅₀ values were estimated by a non-linear regression using GraphPad Prism software.

[8] = biological target: T6, recombinant human tau, isoform Tau-F of …; test: direct ELISA, hTau40 coated at 3 µg/ml (legend of FIG. 7)
Excerpt: as §4

[9] = biological target: T6, recombinant human tau, isoform Tau-F of …; test: ELISA on recombinant tau (FIG. 15)
[10] = biological target: T6, recombinant human tau, isoform Tau-F of …; test: ELISA on recombinant tau
[11] = biological target: T7, peptide corresponding to amino acids 226-239 of human tau (226VAVVRpTPPKSPSSA239), cognate epitope of AT180 (human); test: direct ELISA on coated peptide
T7 peptide: VAVVR[pT]PPKSPSSA

[12] = biological target: T6, recombinant human tau, isoform Tau-F of …; test: direct ELISA, hTau40 coated at 1 µg/ml
Method: as §3, §4

[13] = biological target: T8, peptide corresponding to amino acids 333-346 of hTau40 with an additional C-terminal cysteine (human); test: direct ELISA on coated peptide (legend of FIG. 5)
T8 peptide: GGGQVEVKSEKLDFC

[14] = biological target: T6, recombinant human tau, isoform Tau-F of …; test: direct ELISA, hTau40 coated at 1 µg/ml (legend of FIG. 2)
Method: as §3, §4

T1 sequence (P10636 other isoform, or with tags, fused parts or gaps): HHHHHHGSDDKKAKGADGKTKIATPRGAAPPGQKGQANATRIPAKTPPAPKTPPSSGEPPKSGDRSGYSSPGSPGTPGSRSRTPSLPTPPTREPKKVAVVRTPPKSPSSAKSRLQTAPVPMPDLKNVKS

binding result [1]: no binding
binding result [2]: no binding
binding result [3]: no binding
binding result [4]: no binding
EC50 [5]: 1.2 nM
EC50 [6]: 1.4 nM
B1: recombinant human tau antibody NI-105.4A3 (antibody, human IgG1, V domains shown)
VH: QVQLVESGGGAVQPGGSLRLSCAASGFTFSDYAMHWVRQAPGKGLQWVAVISYEGTYKYYADSVKGRFTISRDNSKNTLNLQMSSLRVEDTAVYFCVKARAFASGQRSTSTVPDYWGQGTLVTVSS
VL: SYELTQPPSVSVSPGQTARITCSGDALPKKYAYWYQQKSGQAPVLVIYEDNKRPSGIPERFSGSSSGTVATLTISGAQVDDEADYYCYSTDISGDLRVFGGGTKLTVL

EC50 [7]: 6.6 nM
EC50 [8]: 6 nM
B2: recombinant human tau antibody NI-105.24B2 (antibody, human IgG1, V domains shown)
VH: QVQLVQSGAEVKKPGASVKVSCKASGYTFVNYIIHWVRQAPGQGLEWMGIINPNGGNTSYAEKFQARVTLTSDTSTSTVYMDLSSLTSEDTAVYYCAVLSPSNPWGQGTTVTVSS
VL: SYELTQPPSVSVSPGQTAGITCSGDALPKQFVYWYQKKPGQAPVLLIYKDTERPSRIPERFSGSTSGTTVALTINGVQAEDEADYYCQSADRSGALWVFGGGTKLTVL

binding result [11]: no binding
EC50 [12]: 2.4 nM
binding result [13]: binds
EC50 [14]: 2 nM
B4: recombinant human tau antibody NI-105.4E4 (antibody, V domains shown)
VH: EVQLVESGGGLVQPGGSLKLSCAASGFNFNISAIHWVRQASGKGLEWVGRIRSKSHNYATLYAASLKGRFTLSRDDSRNTAYLQMSSLQTEDMAVYYCTVLSANYDTFDYWGQGTLVTVSS
VL: SYELTQPPSVSVSPGQTARISCFGDTLPKQYTYWYQQKPGQAPVLVIYKDTERPSGIPERFSGSSSGTTVTLTISGVQAEDEADYYCLSADNSATWVFGGGTKVTVL

The next lines start with the binder.

B3: ch4E4(N30Q), mouse IgG2a/lambda (antibody, V domains shown)
VH: EVQLVESGGGLVQPGGSLKLSCAASGFNFQISAIHWVRQASGKGLEWVGRIRSKSHNYATLYAASLKGRFTLSRDDSRNTAYLQMSSLQTEDMAVYYCTVLSANYDTFDYWGQGTLVTVSS
VL: SYELTQPPSVSVSPGQTARISCFGDTLPKQYTYWYQQKPGQAPVLVIYKDTERPSGIPERFSGSSSGTTVTLTISGVQAEDEADYYCLSADNSATWVFGGGTKVTVLG
notes: Produced in and purified from CHO cells; also called the modified antibody
fold higher apparent binding affinity relative to the original, glycosylated antibody (ch4E4) [9]: ~4 fold
EC50 (read off the curve) [10]: ~0.04 µg/mL

B5: ch4E4(N30Q) mIgG1 Agly (antibody, V domains shown)
VH: EVQLVESGGGLVQPGGSLKLSCAASGFNFQISAIHWVRQASGKGLEWVGRIRSKSHNYATLYAASLKGRFTLSRDDSRNTAYLQMSSLQTEDMAVYYCTVLSANYDTFDYWGQGTLVTVSS
VL: SYELTQPPSVSVSPGQTARISCFGDTLPKQYTYWYQQKPGQAPVLVIYKDTERPSGIPERFSGSSSGTTVTLTISGVQAEDEADYYCLSADNSATWVFGGGTKVTVLG
notes: also called ch4E4(N30Q) IgG 1-Agly; mouse chimeric aglycosylated variant of 4E4
EC50 (read off the curve) [10]: ~0.04 µg/mL

B6: chimeric 4E4 (ch4E4), mouse IgG2a/lambda (antibody, V domains shown)
VH: EVQLVESGGGLVQPGGSLKLSCAASGFNFNISAIHWVRQASGKGLEWVGRIRSKSHNYATLYAASLKGRFTLSRDDSRNTAYLQMSSLQTEDMAVYYCTVLSANYDTFDYWGQGTLVTVSS
VL: SYELTQPPSVSVSPGQTARISCFGDTLPKQYTYWYQQKPGQAPVLVIYKDTERPSGIPERFSGSSSGTTVTLTISGVQAEDEADYYCLSADNSATWVFGGGTKVTVLG
modifications: N-glycan on Asn-30 (fully occupied on CHO expression)
notes: also called original, glycosylated antibody
EC50 (read off the curve) [10]: ~0.2 µg/mL
